The target in the test is BG505 SOSIP.664. As to the kind of experiment: BLI. (Biolayer interferometry detects binding as a change in optical thickness at a sensor tip.)

B1: PGT122 Fab (Fab, V domains shown)
VH: QVHLQESGPGLVKPSETLSLTCNVSGTLVRDNYWSWIRQPLGKQPEWIGYVHDSGDTNYNPSLKSRVHLSLDKSKNLVSLRLTGVTAADSAIYYCATTKHGRRIYGVVAFKEWFTYFYMDVWGKGTSVTVSS
VL: APTFVSVAPGQTARITCGEESLGSRSVIWYQQRPGQAPSLIIYNNNDRPSGIPDRFSGSPGSTFGTTATLTITSVEAGDEADYYCHIWDSRRPTNWVFGEGTTLIVL
As usually defined, the Kd is the free concentration of one partner at which half of the binding sites on the other are occupied at equilibrium, for simple one-to-one binding. By koff is commonly meant the rate constant with which the complex falls apart. As to B1, the affinity, expressed as Kd, was 34.8 nM and the koff came to 0.00085 s⁻¹.

The values above are taken from publication PMC5955915 (2018).
